Test results reported in patent publication EP4588489A1, “LINKER FOR ANTIBODY-DRUG CONJUGATE AND USE THEREOF” (priority 2022, dated 2024).
Changes are numbered by the printed parent chain.

T1: TROP2 (UniProt P09758 27-323, limits assumed)
T1 sequence (looked up): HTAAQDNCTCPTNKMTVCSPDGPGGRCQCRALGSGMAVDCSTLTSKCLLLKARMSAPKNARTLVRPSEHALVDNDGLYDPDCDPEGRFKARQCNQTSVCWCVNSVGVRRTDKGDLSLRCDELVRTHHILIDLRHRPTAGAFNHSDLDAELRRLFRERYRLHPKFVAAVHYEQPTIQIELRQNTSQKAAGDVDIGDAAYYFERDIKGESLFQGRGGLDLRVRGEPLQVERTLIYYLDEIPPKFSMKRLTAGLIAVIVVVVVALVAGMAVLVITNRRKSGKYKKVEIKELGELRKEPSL

T2: BCMA (UniProt Q02223 1-184, limits assumed)
T2 sequence (looked up): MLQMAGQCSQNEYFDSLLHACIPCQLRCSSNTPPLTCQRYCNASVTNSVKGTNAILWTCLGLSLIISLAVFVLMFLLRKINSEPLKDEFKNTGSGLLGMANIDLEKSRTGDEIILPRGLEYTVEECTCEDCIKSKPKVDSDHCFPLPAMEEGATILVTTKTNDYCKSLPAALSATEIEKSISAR

B1: ADC01 (Datopotamab conjugated to GGFG-Dxd) (antibody, human IgG1, kappa, V domains shown)
VH: QVQLVQSGAEVKKPGASVKVSCKASGYTFTTAGMQWVRQAPGQGLEWMGWINTHSGVPKYAEDFKGRVTISADTSTSTAYLQLSSLKSEDTAVYYCARSGFGSSYWYFDVWGQGTLVTVSS
VL: DIQMTQSPSSLSASVGDRVTITCKASQDVSTAVAWYQQKPGKAPKLLIYSASYRYTGVPSRFSGSGSGTDFTLTISSLQPEDFAVYYCQQHYITPLTFGQGTKLEIKR
modifications: linker-drug GGFG-Dxd on cysteines of reduced interchain disulfides; average DAR 3.73
B2: ADC02 (hRS7 conjugated to GGFG-Dxd) (antibody, human IgG1, kappa, V domains shown)
VH: QVQLQQSGSELKKPGASVKVSCKASGYTFTNYGMNWVKQAPGQGLKWMGWINTYTGEPTYTDDFKGRFAFSLDTSVSTAYLQISSLKADDTAVYFCARGGFGSSYWYFDVWGQGSLVTVSS
VL: B1 VL with M4L, T20S, T31I, S60D, Q100A, L104V
modifications: linker-drug GGFG-Dxd on cysteines of reduced interchain disulfides; average DAR 3.69
B3: ADC04 (hRS7 conjugated to CPD2) (antibody, human IgG1, kappa, V domains shown)
VH: B2 VH
VL: B1 VL with M4L, T20S, T31I, S60D, Q100A, L104V
modifications: linker-drug CPD2 on cysteines of reduced interchain disulfides; average DAR 3.92
B4: ADC03 (hRS7 conjugated to CPD1) (antibody, human IgG1, kappa, V domains shown)
VH: B2 VH
VL: B1 VL with M4L, T20S, T31I, S60D, Q100A, L104V
modifications: linker-drug CPD1 on cysteines of reduced interchain disulfides; average DAR 3.82
B5: ADC05 (hRS7 conjugated to CPD3) (antibody, human IgG1, kappa, V domains shown)
VH: B2 VH
VL: B1 VL with M4L, T20S, T31I, S60D, Q100A, L104V
modifications: linker-drug CPD3 on cysteines of reduced interchain disulfides; average DAR 3.99
B6: anti-BCMA-005-Hu178-CPD-D4 (antibody, human IgG1, kappa, V domains shown)
VH: EVQLVESGGGLVKPGGSLRLSCAASGFTFSNFDMAWVRQAPGKGLEWVASIVTRGDDTYYRDSVRGRFTISRDNAKNTQYLQMNSLRAEDTAVYYCARHDYGGPSGWFGYWGQGTLVTVSS
VL: DIQMTQSPSSLSASVGDRVTITCRASQGFSNNLNWYQQKPGKTPKPLIYYTSNLHSGVPSRFSGSGSGTDYSLTISSLQPEDFATYYCQQDASFPPTFGQGTKLEIKR
modifications: linker-drug CPD1 on cysteines of reduced interchain disulfides; HIC-DAR 4.24
B7: anti-BCMA-005-Hu178-vcMMAE-D4 (antibody, human IgG1, kappa, V domains shown)
VH: B6 VH
VL: B6 VL
modifications: vc-MMAE on cysteines of reduced interchain disulfides; HIC-DAR 3.78
B8: anti-BCMA-005-Hu178-CPD-D8 (antibody, human IgG1, kappa, V domains shown)
VH: B6 VH
VL: B6 VL
modifications: linker-drug CPD1 on cysteines of reduced interchain disulfides; HIC-DAR 7.73
B9: anti-BCMA-005-Hu178-glucoseMMAE-NC-D4 (antibody, human IgG1, kappa, V domains shown)
VH: B6 VH
VL: B6 VL
modifications: Linker-MMAE derivative 1 on cysteines of reduced interchain disulfides; HIC-DAR 3.73
B10: anti-BCMA-005-Hu178-vcMMAF-D4 (antibody, human IgG1, kappa, V domains shown)
VH: B6 VH
VL: B6 VL
modifications: vc-MMAF on cysteines of reduced interchain disulfides; HIC-DAR 3.86
B11: anti-BCMA-005-Hu178-OMeMMAE-D4 (antibody, human IgG1, kappa, V domains shown)
VH: B6 VH
VL: B6 VL
modifications: Linker-MMAE derivative 2 on cysteines of reduced interchain disulfides; HIC-DAR 3.79

The binders below were run against T1, TROP2 (assay: cell-based or functional assay).

Compared with B1, B2 is 1.9-fold lower in “A431 IC50/µg/mL (in vitro cell viability assay)” value (“A431 IC50/µg/mL” below): 0.11 µg/mL for the first, 0.057 µg/mL for the second.

Compared with B3, B4 is 1.5-fold higher in “A431 IC50/µg/mL” value: 0.048 µg/mL for the first, 0.074 µg/mL for the second.

For B5, the “A431 IC50/µg/mL” value was 0.024 µg/mL.

The binders below were run against T2, BCMA (assay: cell-based or functional assay).

Going from B6 to B7, the “EC50(nM), inhibition of MM.1S cell proliferation” value (shortened to “EC50(nM), inhibition”) falls from 12.2 nM to 2.3 nM (5.3-fold).

With B8 the “EC50(nM), inhibition” value was 4.56 nM.

Molecular target: T2, BCMA
Assay: cell-based or functional assay
Remark: another data set of the same source

First: B9
Second: B10
The “EC50(nM), inhibition” value of the first is 1.9-fold higher: 2.15 nM for the first, 1.12 nM for the second.

B11 and B7 are within 1.5-fold of each other in “EC50(nM), inhibition” value: 2.42 nM for the first, 1.87 nM for the second.

First: B9
Second: B10
The “Relative activity (%), inhibition of MM.1S cell proliferation” value of the first is lower: 86.8% for the first, 166% for the second.

Compared with B11, B7 is higher in “Relative activity (%), inhibition of MM.1S cell proliferation” value: 77.1% for the first, 100% for the second.
